Results published in US20220111042A1, “MANF as a Regulator of Immune System Function” (University of Massachusetts, priority 2014, published 2022).
Read-outs that look alike come from different tables or passages of the source.

How the values were obtained:
[1] = tested on: DO 11.10 cells; assay: Ara-C dose-response for cell death of DO 11.10 cells; type: cell-based; settings: dose-response curve
[2] = tested on: MANF expression; settings: mouse splenocytes treated with cyclophosphamide; cited from earlier work
[3] = tested on: DO 11.10 cells; assay: Dexamethasone dose-response for cell death of DO 11.10 cells; type: cell-based; settings: dose-response curve
Description: FIGS. 10A-B provides an analysis of MANF's ability to protect DO 11.10 cells from cell death caused by the glucocorticoid dexamethasone. […] DO 11.10 cells were pretreated for 24 hrs with MANF (dose shown; B) and then challenged with 100 nM dexamethasone to induce cell death. *p=0.003; **p=0.019.
(§1) Because MANF is expressed in T cells and is induced when they become activated, experiments were performed to determine whether MANF confers protection to these cells. A dose-response curve was generated with the glucocorticoid dexamethasone to determine the dose that results in ˜50% cell death (24 nM) (FIG. 10A). DO 11.10 cells were then pretreated for 24 hours with 0, 10 ng/mL, 100 ng/mL, 1 μg/mL, 10 μg/mL, or 50 μg/mL MANF before exposure to 100 nM dexamethasone to investigate a protective effect for MANF. […] These are key functional data.

[4] = tested on: MANF expression; settings: male C57BL/6 B cells, B cell activation (CD40 at 65 nM); cited from earlier work
[5] = tested on: MANF expression; settings: immortalized B cells from 60 human individuals, tunicamycin to induce ER stress vs untreated; cited from earlier work
[6] = tested on: KLH-specific IgM; assay: KLH-specific IgM ELISA after injection of mice with TNP-KLH/alum with MANF or PBS; type: in vivo; settings: 8 week old male mice, i.p. 100 μg TNP-KLH with 5% alum plus 200 μL of 1 μg/μL MANF vs PBS; blood seven days later; p=0.0013
Description: FIG. 5 provides an ELISA analysis of anti-KLH specific IgM titers between mice injected with 2,4,6, Trinitrophenyl hapten conjugated Keyhole Limpet Hemocyanin (TNP-KLH) and either 200 μL of 1 μg/μL MANF (KLH-MANF; right) or phosphate buffered saline (KLH-PBS; left). P=0.0013, Student's t-test.
Based on the expression in the non-germinal cells within the lymph nodes it was speculated that MANF might enhance antibody production and provide for faster and/or higher titers of antibodies following exposure to a novel antigen. To test this hypothesis, 8 week old male mice were injected intraperitoneally with 100 μg of sterile TNP-KLH (2,4,6, Trinitrophenyl hapten conjugated Keyhole Limpet Hemocyanin) with 5% alum in the presence of 200 μL of 1 μg/μL MANF or an equal volume of PBS. Blood was sampled via the submandibular vein seven days later and the KLH-specific IgM analyzed using an enzyme linked immunoassays (ELISA) from Life Diagnostics, Inc. The concentration was calculated from a standard curve. A Student's t-test was used to establish statistical significance (p=0.0013).

[7] = tested on: DO 11.10 cells; assay: MANF pretreatment protecting DO 11.10 cells from dexamethasone induced cell death; type: cell-based; settings: 24 hours pretreatment, then 100 nM dexamethasone
Description: FIGS. 10A-B provides an analysis of MANF's ability to protect DO 11.10 cells from cell death caused by the glucocorticoid dexamethasone. […]. DO 11.10 cells were pretreated for 24 hrs with MANF (dose shown; B) and then challenged with 100 nM dexamethasone to induce cell death. *p=0.003; **p=0.019.
as §1

[8] = tested on: DO 11.10 cells; assay: MANF pretreatment protecting DO 11.10 cells from Ara-C induced cell death; type: cell-based; settings: 1, 10, 100 ng/mL MANF, 24 hours pretreatment, then 10 μM Ara-C
Source text: FIGS. 11A-B provide an analysis of MANF's ability to protect DO 11.10 cells from cell death caused by the DNA damaging chemotherapeutic drug cytosine arabinoside (Ara-C). […].

[9] = tested on: midbrain dopaminergic neurons; settings: primary nigral neuron cell cultures; cited from earlier work
[10] = tested on: dopaminergic neurons; settings: cited from earlier work
[11] = injection of MANF into 6-OHDA treated rat brains

## Nc1ccn([C@@H]2O[C@H](CO)[C@@H](O)[C@@H]2O)c(=O)n1 [Ara-C, cytosine arabinoside]
[1]
  LD50 (dose that results in 50% cell death): ~5 µM

## O=P1(N(CCCl)CCCl)NCCCO1 (centres unmarked) [cyclophosphamide]
[2]
  MANF expression: highly induced

## C[C@@H]1C[C@H]2[C@@H]3CCC4=CC(=O)C=C[C@]4(C)[C@@]3(F)[C@@H](O)C[C@]2(C)[C@@]1(O)C(=O)CO [dexamethasone]
[3]
  LD50 (dose that results in ~50% cell death): 24 nM

## B-cell activating factor: ligand used for B cell activation in ligand screen
[4]
  MANF expression: dramatic, but transient, repression

## tunicamycin
[5]
  MANF expression: higher levels of MANF expression

B1: MANF: mesencephalic astrocyte-derived neurotrophic factor, an 18 kDa secreted protein; form used in the tests not stated (protein, UniProt P55145 25-182, looked up)
Mesencephalic …: LRPGDCEVCISYLGRFYQDLKDRDVTFSPATIENELIKFCREARGKENRLCYYIGATDDAATKIINEVSKPLAHHIPVEKICEKLKKKDSQICELKYDKQIDLSTVDLKKLRVKELKKILDDWGETCKGCAEKSDYIRKINELMPKYAPKAASARTDL
[6]
  levels of anti-KLH IgM antibodies: significantly increased
[7]; 10 ng/mL MANF, p=0.003
  protection against dexamethasone induced cell death: statistically significant, does-dependent protection
[7]; 100 ng/mL MANF, p=0.019
  protection against dexamethasone induced cell death: statistically significant, does-dependent protection
[7]; higher doses of MANF (1, 10, 50 μg/mL)
  protection against dexamethasone induced cell death: No statistically significant effects
[8]
  protection against Ara-C induced cell death: dose-dependent protection
[9]
  protection of dopaminergic neurons from death: protected these midbrain dopaminergic neurons from death
[10]; [11]
  behavioral symptoms associated with the disorder: reduced the behavioral symptoms
  loss of dopaminergic neurons: statistically significant reduction
[10]; up to 4 weeks after 6-OHDA treatment
  dopaminergic neuron survival and motor defects: improve dopaminergic neuron survival and correct motor defects
